The source of these data is paper PMC3343374.

pKd: −log10 of the molar value. Several values for one entry are separate records, joined by “and”; a condition that tells them apart may be missing. Equal values may be shown once. Read-outs that look alike come from different tables or passages of the source.

For assay [1], the target named is FAM-labeled, EndoH-digested GluA2S amino-terminal domain. In words: AUC.
For assay [2] the target is unchanged. In words: AUC. This is another data set of the same source.
The target is the same in assay [3]. In words: AUC. This is another data set of the same source.
Assay [4] concerns the target GluA2S amino-terminal domain expressed in GnTI- cells and digested with EndoH. In words: AUC.
Assay [5] shares this target. In words: AUC. The source holds these as a separate data set.
Assay [6] has the same target. In words: dynamic light scattering.
Assay [7] has the same target. As to the kind of experiment: AUC. The source holds these as a separate data set.
For assay [8] the target is unchanged. In words: SEC-MALS. Background: Size exclusion chromatography separates by hydrodynamic size, large species first.
Assay [9] has the same target. As to the kind of experiment: AUC. This is another data set of the same source.
Assay [10] has as its target DyLight405-labeled, EndoH-digested GluA2S amino-terminal domain. As to the kind of experiment: fluorescence polarisation. For orientation: Fluorescence polarisation rises when a labelled molecule tumbles more slowly, as on binding a larger partner.
The target in assay [11] is GluA2S amino-terminal domain expressed in GnTI- cells and digested with EndoH. In words: AUC. The source holds these as a separate data set.
The target is the same in assay [12]. In words: AUC. The source holds these as a separate data set.
In assay [13] the target is DyLight405-labeled, EndoH-digested GluA2S amino-terminal domain. As to the kind of experiment: fluorescence polarisation. The source holds these as a separate data set.
Assay [14] has as its target GluA2S amino-terminal domain expressed in HEK293S GnTI- cells (high mannose glycans). In words: AUC.
Assay [15] has the same target. In words: SEC-MALS.
In assay [16] the target is GluA2S amino-terminal domain expressed in HEK293T cells (complex glycosylation). In words: AUC.
The target is the same in assay [17]. As to the kind of experiment: AUC. The source holds these as a separate data set.
Assay [18] shares this target. In words: dynamic light scattering.
Assay [19] has the same target. In words: SEC-MALS.
The target in assay [20] is GluA3 amino-terminal domain expressed in HEK293T cells (UniProt P19492). In words: AUC.
Assay [21] has the same target. As to the kind of experiment: AUC. The source holds these as a separate data set.

Chain of GluA2S amino-terminal domain expressed in HEK293T cells (complex glycosylation) (P19491 22-883, one chain of several): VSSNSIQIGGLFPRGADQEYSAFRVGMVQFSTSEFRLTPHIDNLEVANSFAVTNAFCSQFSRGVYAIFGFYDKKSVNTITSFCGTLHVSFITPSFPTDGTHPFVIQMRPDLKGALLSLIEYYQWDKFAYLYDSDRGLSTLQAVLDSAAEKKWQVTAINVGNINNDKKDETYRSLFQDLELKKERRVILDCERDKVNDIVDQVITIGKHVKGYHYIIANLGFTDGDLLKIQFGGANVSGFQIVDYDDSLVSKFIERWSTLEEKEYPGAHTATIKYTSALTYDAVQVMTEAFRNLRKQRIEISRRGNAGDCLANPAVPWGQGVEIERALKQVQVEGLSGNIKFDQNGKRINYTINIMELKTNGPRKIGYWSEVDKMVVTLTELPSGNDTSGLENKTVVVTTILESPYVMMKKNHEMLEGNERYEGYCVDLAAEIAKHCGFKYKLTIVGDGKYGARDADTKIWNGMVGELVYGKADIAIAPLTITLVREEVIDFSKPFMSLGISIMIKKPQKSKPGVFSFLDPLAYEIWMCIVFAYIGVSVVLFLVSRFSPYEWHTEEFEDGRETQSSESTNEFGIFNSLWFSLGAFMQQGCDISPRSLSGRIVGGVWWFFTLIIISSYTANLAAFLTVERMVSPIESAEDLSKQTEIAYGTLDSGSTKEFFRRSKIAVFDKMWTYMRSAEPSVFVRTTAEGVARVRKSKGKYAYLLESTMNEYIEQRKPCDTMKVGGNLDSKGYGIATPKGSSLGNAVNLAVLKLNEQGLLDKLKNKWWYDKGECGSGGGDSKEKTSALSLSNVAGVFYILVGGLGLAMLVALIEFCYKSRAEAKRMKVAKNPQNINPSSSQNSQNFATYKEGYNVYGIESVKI
Chain of GluA2S amino-terminal domain expressed in GnTI- cells and digested with EndoH (P19491 22-883): as the sequence (P19491 22-883, one chain of several) above
Chain of FAM-labeled, EndoH-digested GluA2S amino-terminal domain (P19491 22-883): as the sequence (P19491 22-883, one chain of several) above
Chain of GluA2S amino-terminal domain expressed in HEK293S GnTI- cells (high mannose glycans) (P19491 22-883): as the sequence (P19491 22-883, one chain of several) above

For “FAM-labeled, EndoH-digested GluA2S amino-terminal domain (domain or fragment)”, the pKd (in general, the negative decadic logarithm of the Kd, by convention in mol/L) in assay [1] was 7.83; in assay [2], 7.59; in assay [3] it was 8.28.

Take “GluA2S amino-terminal domain expressed in GnTI- cells and digested with EndoH (domain or fragment)”: the negative-log Kd (pKd) in assay [4] was 8.25 and 8.08 and 8.01; in assay [5], 6.80 and 6.55; in assay [7], 6.24; in [9], 7.52; in assay [10], 7.97 and 7.95 and 8.07; in assay [11], < 2.60. In addition, the results for the pKd in assay [12] and in assay [13] were 7.77 and 8.01, respectively. Besides, the stoichiometry N in assay [6] and in assay [8] was 2 each time.

For “GluA2S amino-terminal domain expressed in HEK293S GnTI- cells (high mannose glycans) (domain or fragment)”, in assay [14], the pKd was 7.96. The stoichiometry N (in general, a count of units in the complex or per binding partner) in assay [15] worked out at 2.

For the substance “GluA2S amino-terminal domain expressed in HEK293T cells (complex glycosylation) (domain or fragment)”, the negative logarithm of the Kd (pKd) in assay [16] is 8.08; in [17], 8.22. The stoichiometry N in assay [18] and in [19] was 2 each time.

Consider “GluA3 amino-terminal domain expressed in HEK293T cells (from UniProt P19492 23-888) (domain or fragment)”, for which the pKd in assay [20] is 5.51; in [21], < 3.79.
